Legend:
Experiment in all cases: SEC
[1] = biological target: BtKY72 soluble spike ectodomain (2P, GSAS, T4 fibritin trimerization motif) (BtKY72 (sarbecovirus) | bacteriophage T4)
[2] = biological target: BM48-31 soluble spike ectodomain (2P, GSAS, T4 fibritin trimerization motif) (BM48-31 (sarbecovirus) | bacteriophage T4)
[3] = biological target: Pang17 soluble spike ectodomain (2P, GSAS, T4 fibritin trimerization motif) (pang17 (sarbecovirus of pangolins) | bacteriophage T4)
[4] = biological target: Yun11 soluble spike ectodomain (2P, GSAS, T4 fibritin trimerization motif) (Yun11 (sarbecovirus) | bacteriophage T4)
[5] = biological target: SARS-CoV-1 soluble spike ectodomain (2P, GSAS, T4 fibritin trimerization motif) (SARS-CoV-1 | bacteriophage T4) (UniProt P59594)
[6] = biological target: Rf1 soluble spike ectodomain (2P, GSAS, T4 fibritin trimerization motif) (Rf1 (sarbecovirus) | bacteriophage T4)
[7] = biological target: RmYN02 soluble spike ectodomain (2P, GSAS, T4 fibritin trimerization motif) (RmYN02 (sarbecovirus) | bacteriophage T4)
[8] = biological target: Rs4081 soluble spike ectodomain (2P, GSAS, T4 fibritin trimerization motif) (Rs4081 (sarbecovirus) | bacteriophage T4)

BtKY72 soluble spike ectodomain (2P, GSAS, T4 fibritin trimerization motif) (domain or fragment)
stoichiometry N [1]: 3

BM48-31 soluble spike ectodomain (2P, GSAS, T4 fibritin trimerization motif) (domain or fragment)
stoichiometry N [2]: 3

Pang17 soluble spike ectodomain (2P, GSAS, T4 fibritin trimerization motif) (domain or fragment)
stoichiometry N [3]: 3

Yun11 soluble spike ectodomain (2P, GSAS, T4 fibritin trimerization motif) (domain or fragment)
stoichiometry N [4]: 3

SARS-CoV-1 soluble spike ectodomain (2P, GSAS, T4 fibritin trimerization motif) (from UniProt P59594 14-1190) (domain or fragment)
stoichiometry N [5]: 3

Rf1 soluble spike ectodomain (2P, GSAS, T4 fibritin trimerization motif) (domain or fragment)
stoichiometry N [6]: 3

RmYN02 soluble spike ectodomain (2P, GSAS, T4 fibritin trimerization motif) (domain or fragment)
stoichiometry N [7]: 3

Rs4081 soluble spike ectodomain (2P, GSAS, T4 fibritin trimerization motif) (domain or fragment)
stoichiometry N [8]: 3

— paper PMC9435400
